For the assay, the target named is HoxG, large subunit of the membrane-bound [NiFe]-hydrogenase (MBH) from Cupriavidus necator, isolated, with N-terminal Strep-tag II (Cupriavidus necator) (UniProt P31891). Description: SEC; HoxG at higher concentrations (series 0.5, 2.5, 12.5 and 60 mg/ml); Superdex 200 Increase 10/300 GL; 50 mM KiPO4, 150 mM NaCl, pH 7.4, 4 °C; sizes from a calibration curve of reference proteins. A general note: SEC sorts molecules by how far they enter the pores of the column.

Turning to “HoxG, large subunit of the membrane-bound [NiFe]-hydrogenase (MBH) from Cupriavidus necator, isolated, with N-terminal Strep-tag II (from UniProt P31891 1-618) (natural protein)”, the stoichiometry N (as a rule, the number of molecules, sites or subunits per partner or assembly) turned out to be 2.

(Values after PMC9886862.)
